Source: patent publication US8986655

Biological target: prostate-specific membrane antigen (PSMA), dimeric isoform (UniProt Q04609)
Assay: phage-displayed ELISA on 1 µg/mL PSMA dimer, HRP activity

prostate-specific membrane antigen (PSMA), dimeric isoform, sequence (Q04609 44-750): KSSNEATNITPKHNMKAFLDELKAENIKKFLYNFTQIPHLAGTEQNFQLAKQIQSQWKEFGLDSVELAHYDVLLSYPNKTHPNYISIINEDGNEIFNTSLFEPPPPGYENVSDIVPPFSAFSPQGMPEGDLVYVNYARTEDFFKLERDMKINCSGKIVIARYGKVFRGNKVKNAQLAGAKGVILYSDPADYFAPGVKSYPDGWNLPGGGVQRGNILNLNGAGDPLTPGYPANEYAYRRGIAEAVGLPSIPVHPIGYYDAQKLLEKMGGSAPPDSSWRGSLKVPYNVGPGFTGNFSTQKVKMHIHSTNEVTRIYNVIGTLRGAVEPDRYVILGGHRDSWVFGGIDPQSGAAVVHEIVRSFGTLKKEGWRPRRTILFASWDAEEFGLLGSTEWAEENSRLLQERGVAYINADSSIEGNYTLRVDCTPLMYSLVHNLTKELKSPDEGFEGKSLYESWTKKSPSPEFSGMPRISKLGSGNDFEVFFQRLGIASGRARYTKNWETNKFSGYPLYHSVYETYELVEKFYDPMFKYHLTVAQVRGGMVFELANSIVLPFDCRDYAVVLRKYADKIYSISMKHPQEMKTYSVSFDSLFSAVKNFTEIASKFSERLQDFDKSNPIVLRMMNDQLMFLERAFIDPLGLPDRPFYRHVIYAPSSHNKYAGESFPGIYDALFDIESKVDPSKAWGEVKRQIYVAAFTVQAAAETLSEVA

phage-displayed peptide 1, CALCEFLG [SEQ ID NO: 1]
EC50 (read off the curve): 0.2 nM
